Measured values reported in patent US20040234982A1 (published 2004).

Assays:
[1] = system: unknown -112 site binding nuclear protein; assay: EMSA
T/EBP/NKX2.1 (TTF1) = target: T1, T/EBP/NKX2.1 (TTF1) (UniProt P23441); assay: cell_activity; details: luciferase
T1 sequence: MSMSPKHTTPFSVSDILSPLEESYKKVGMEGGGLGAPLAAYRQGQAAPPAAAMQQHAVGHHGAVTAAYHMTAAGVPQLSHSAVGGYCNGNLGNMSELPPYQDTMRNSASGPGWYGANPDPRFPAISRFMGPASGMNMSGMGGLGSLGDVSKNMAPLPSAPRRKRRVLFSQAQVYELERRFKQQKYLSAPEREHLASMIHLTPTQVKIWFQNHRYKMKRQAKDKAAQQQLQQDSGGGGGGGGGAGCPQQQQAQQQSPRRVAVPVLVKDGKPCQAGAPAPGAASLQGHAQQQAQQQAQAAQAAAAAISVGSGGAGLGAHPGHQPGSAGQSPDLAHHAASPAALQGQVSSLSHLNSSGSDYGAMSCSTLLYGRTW

[2] = target: the molecule itself; assay: anti-c-myc immunoblot of COS-1 cell lysate and conditioned medium, non-reducing vs reducing SDS-PAGE; homodimer
Experimental: Three forms of cDNAs encoding type A, B and C proteins were amplified by PCR and inserted into EcoRI and XhoI site of pcDNA3.1/Myc-His(+) A vector (Invitrogen). Transient transfection into COS-1 cells was performed using Effectene transfection reagent (Qiagen). After 2 days, cells and conditioned media were collected, separated on 13% SDS-polyacrylamide gels under reducing and non-reducing conditions, and electrophoretically transferred to nitrocellulose membrane (Schleicher & Schuell). The filter was incubated in PBS containing 5% skim milk, and then for 1 h with 250-fold diluted c-myc 9E10 […] antibody (Santa Cruz Biotechnology, Santa Cruz, Calif.). The filter was washed in PBS containing 0.1% Tween 20, incubated with horseradish peroxidase (HRP)-conjugated anti-rabbit IgG (Amersham Pharmacia Biotech), and then washed with the same buffer. Protein bands were detected using ECL Western blotting detection reagent (Amersham Pharmacia Biotech).
The polypeptides of uteroglobin/CCSP family members form a homodimer or heterodimer (Mukherjee et al., Cell Mol Life Sci 55:771-787, 1999). […] In contrast, no band corresponding to polypeptide C was ever detected in either the cell lysate or the medium under any conditions examined, despite the effort to keep the procedures of transient expression and immunoblot analyses consistent for all three polypeptides. […]

-112A oligonucleotide
binding signal (fold affinity vs -112G) ([1]; binds at same mobility, about 2-fold lower affinity): 0.5

pGL3-147 mouse UGRP1 promoter reporter
activity (fold activation) (T/EBP/NKX2.1 (TTF1); HeLa cells): 5

-112G oligonucleotide
binding signal (fold affinity vs -112A) ([1]; competition with unlabeled oligonucleotides): 2

pGL3-190 mouse UGRP1 promoter reporter
activity (fold activation) (T/EBP/NKX2.1 (TTF1); NCI-H441 cells): 4

B1: Mouse UGRP1 type A polypeptide tagged with a c-myc epitope at the carboxyl-terminus, expressed in COS-1 cells (other, not shown: small tags and cut ends)
chain: LLINRLPVVDKLPVPLDDIIPSFDPLKMLLKTLGISVEHLVTGLKKCVDELGPEASEAVKKLLEALSHLV
notes: Type A is 91 amino acids; The protein was found as a homodimer under non-reducing conditions; also called polypeptide A
binding result [2]: binds
